Test results published in PMC3718016.

What was measured:
SRPK1(ΔSα1) = SRPK1(ΔSα1) (UniProt Q96SB4)
SRPK1(ΔSα2) = SRPK1(ΔSα2) (UniProt Q96SB4)
SRPK1(ΔSINT) = SRPK1(ΔSINT) (UniProt Q96SB4)
[1] = biological target: SRPK1(ΔN), SRPK1 without the N-terminus (UniProt Q96SB4)
[2] = biological target: SRPK1(ΔS), SRPK1 without the spacer insert domain (UniProt Q96SB4)
SRPK1(ΔNCT) = SRPK1(ΔNCT) (UniProt Q96SB4)
SRPK1(ΔNNT) = SRPK1(ΔNNT) (UniProt Q96SB4)

For “SR protein splicing factor 1 (SRSF1) (from UniProt Q07955 1-248) (natural protein)”, which kcat/KSR (steady-state kinetics with maximum viscosity effect) (SRPK1(ΔSα1)) is on record?
The kcat/KSR (steady-state kinetics with maximum viscosity effect) was 2.2e+06 M⁻¹ s⁻¹.

And the kcat/KSR (steady-state kinetics with maximum viscosity effect) (SRPK1(ΔSα2))?
Its kcat/KSR (steady-state kinetics with maximum viscosity effect) is 6.9e+06 M⁻¹ s⁻¹.

And the kcat/KSR (steady-state kinetics with maximum viscosity effect) (SRPK1(ΔSINT))?
The kcat/KSR (steady-state kinetics with maximum viscosity effect) was 5.3e+06 M⁻¹ s⁻¹.

What about the Km for SRSF1 (KSR), steady-state phosphorylation of SRSF1 [1] of the same substance?
Its Km for SRSF1 (KSR), steady-state phosphorylation of SRSF1 is 0.44 µM.

What about the Km for SRSF1 (KSR), steady-state phosphorylation of SRSF1 [2] of the same substance?
Its Km for SRSF1 (KSR), steady-state phosphorylation of SRSF1 is 0.14 µM.

And the Km for SRSF1 (KSR), steady-state phosphorylation of SRSF1 (SRPK1(ΔNCT))?
The Km for SRSF1 (KSR), steady-state phosphorylation of SRSF1 was 0.41 µM.

And the Km for SRSF1 (KSR), steady-state phosphorylation of SRSF1 (SRPK1(ΔNNT))?
The Km for SRSF1 (KSR), steady-state phosphorylation of SRSF1 was 0.038 µM.
